The target of the assay is T1, Enhancer of zeste homolog 2 (EZH2) (human, UniProt Q15910 1-746, limits assumed).
T1 construct: Endogenous protein in SET2 cells
The experiment in a line: co-immunoprecipitation of endogenous EZH2 and BAP1 in SET2 cells with Western blot, in presence of benzonase. An excerpt:
FIG. 13A-L. BAP1 depletion leads to an increase in PRC2 component expression, increased H4K20me1 and deubiquitination of L3MBTL2. (a) Co-immunoprecipitation of endogenous EZH2 and BAP1 in SET2 cells followed by Western blot analysis (performed in presence of benzonase to inhibit interactions dependent on DNA). (b) Bap1, Ezh2 and Suz12 expression by qRT-PCR from sorted granulocyte-macrophage progenitor (GMP; Lin⁻ c-Kit⁺Sca1⁻CD34′Fcγ⁺). (c) Western blot analysis of Bap1 and Ezh2 in bone marrow cells from Bap1 KO and control mice. (d) H4K20me1 quantification from histone mass spectrometry experiments. (e) Cell viability as assessed by Cell Titer Glo viability assay and (f) Annexin V assays for SETD8 overexpression experiments in BAP1 wild-type (MSTO-211H, Meso10) and mutant cell lines H226, deletion; H2452 catalytic mutation). (g) Quantitative qPCR for SETD8 and EZH2 in BAP1 mutant cells with SETD8 overexpression. (h) Western blot analysis for SETD8 and EZH2 in a BAP1 wild-type cell line. (i) Cell Titer Glo assay in cells treated with DMSO or 5, 10, 20 μM BVT594. (j) L3MBTL2 and BAP1 expression in BAP1 wild-type (Met5a, JMN) and mutant mesothelioma cell lines (H226, H2452, H28). (k) 293T cells overexpressing Myc-His tagged ubiquitin and L3MBTL2 cDNA and varying levels of BAP1 (0, 5 μg, 2.5 μg, 1 μg). […] Statistics were calculated with Student t-test; *p<0.05, **p<0.005; ±SEM values reported. […]

T1 sequence (Q15910 whole entry): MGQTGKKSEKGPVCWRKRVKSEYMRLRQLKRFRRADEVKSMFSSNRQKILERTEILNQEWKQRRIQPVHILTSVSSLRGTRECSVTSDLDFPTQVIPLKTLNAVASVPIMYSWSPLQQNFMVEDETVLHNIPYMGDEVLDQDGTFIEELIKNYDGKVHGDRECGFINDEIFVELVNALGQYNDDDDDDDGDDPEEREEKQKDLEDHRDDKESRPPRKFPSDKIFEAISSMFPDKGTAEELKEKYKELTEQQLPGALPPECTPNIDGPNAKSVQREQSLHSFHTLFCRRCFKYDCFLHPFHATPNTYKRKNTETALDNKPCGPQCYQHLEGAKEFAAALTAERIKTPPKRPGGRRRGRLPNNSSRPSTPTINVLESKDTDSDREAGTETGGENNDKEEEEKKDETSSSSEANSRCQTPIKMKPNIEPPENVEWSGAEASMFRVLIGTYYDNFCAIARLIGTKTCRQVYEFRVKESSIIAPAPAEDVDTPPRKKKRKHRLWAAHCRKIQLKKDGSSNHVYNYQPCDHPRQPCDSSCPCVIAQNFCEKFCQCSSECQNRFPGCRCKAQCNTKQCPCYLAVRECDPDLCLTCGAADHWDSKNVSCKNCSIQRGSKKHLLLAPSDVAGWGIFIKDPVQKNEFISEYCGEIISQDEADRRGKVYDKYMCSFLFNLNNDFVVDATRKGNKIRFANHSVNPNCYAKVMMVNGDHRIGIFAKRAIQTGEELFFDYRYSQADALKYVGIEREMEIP

B1: BRCA1 associated protein-1 (BAP1) (enzyme, human, UniProt Q92560 1-729, looked up)
chain: MNKGWLELESDPGLFTLLVEDFGVKGVQVEEIYDLQSKCQGPVYGFIFLFKWIEERRSRRKVSTLVDDTSVIDDDIVNNMFFAHQLIPNSCATHALLSVLLNCSSVDLGPTLSRMKDFTKGFSPESKGYAIGNAPELAKAHNSHARPEPRHLPEKQNGLSAVRTMEAFHFVSYVPITGRLFELDGLKVYPIDHGPWGEDEEWTDKARRVIMERIGLATAGEPYHDIRFNLMAVVPDRRIKYEARLHVLKVNRQTVLEALQQLIRVTQPELIQTHKSQESQLPEESKSASNKSPLVLEANRAPAASEGNHTDGAEEAAGSCAQAPSHSPPNKPKLVVKPPGSSLNGVHPNPTPIVQRLPAFLDNHNYAKSPMQEEEDLAAGVGRSRVPVRPPQQYSDDEDDYEDDEEDDVQNTNSALRYKGKGTGKPGALSGSADGQLSVLQPNTINVLAEKLKESQKDLSIPLSIKTSSGAGSPAVAVPTHSQPSPTPSNESTDTASEIGSAFNSPLRSPIRSANPTRPSSPVTSHISKVLFGEDDSLLRVDCIRYNRAVRDLGPVISTGLLHLAEDGVLSPLALTEGGKGSSPSIRPIQGSQGSSSPVEKEVVEATDSREKTGMVRPGEPLSGEKYSPKELLALLKCVEAEIANYEACLKEEVEKRKKFKIDDQRRTHNYDEFICTFISMLAQEGMLANLVEQNISVRRRQGVSIGRLHKQRKPDRRKRSRPYKAKRQ
notes: Immunoprecipitated from cell lysates; It is endogenous in the human leukemia line SET2
As to B1, the binding result was “no binding”.

These data come from patent US20170138946A1 (Memorial Sloan Kettering, published 2017).
